B1: monoclonal antibody produced by hybridoma cell line 5210-87-13 (antibody, V domains shown)
VH: QSVKESEGGLFKPTDTLTLTCTVSGFSLSSYRMHWVRQAPGNGLEWIGSISSGGNAAYARWANTRSTITRNTNLNTVTLKMTSLTAADTATYFCGSNVIWGPGTLVTVSS
VL: DPVLTQTPSSVSAAVGGTVTISCQSSESVFKKNWLAWYHQKPGQSPKRLIYGASTLESGAPSRFRGSGSGTQFTLTISDLECGDAATYYCAGAFDGNIYPFGGGTEVVVKG
notes: Rabbit monoclonal antibody; hybridoma supernatant in the screens, mAb preparation in the work on endogenous A3B; The Ig chain entries come from cDNA and may include a leader peptide; no cleavage site stated
B2: monoclonal antibody produced by hybridoma cell line 5210-08-15 (antibody, V domains shown)
VH: QEQLEESGGGLVKPGGTLTLTCKASGFSFSDGYWMCWIRQAPGKGLEWIGCIYDASGGAYFPSWAKGRFTISKTSSTTVTLEMTSLTDADTAIYFCVKTDYGSSKLWGPGTLVTVSS
VL: AVVLTQTASPVSAPVGGTVTINCQASQNIYSNLAWYQQKPGQPPKLLIYGASTLASGVSSRFKGSRSGTEFTLTISDLECADAATYYCQSYVYSSSTADTFGGGTKVVVEV
notes: Rabbit monoclonal antibody, tested as hybridoma culture supernatant; The Ig chain entries come from cDNA and may include a leader peptide; no cleavage site stated

Columns and labels:
[1] = biological target: T1, endogenous human APOBEC3B (A3B) of cancer cell lines (human, UniProt Q9UH17 1-382); assay: intracellular flow cytometry, OVCAR5 and MDA-MB-468 cells with control or A3B shRNA
T1 construct: whole, on cells; Untagged endogenous, intracellular protein: detected in fixed and permeabilised cells (immunofluorescence, flow cytometry) and in cell lysates (immunoblot); also called endogenous A3B
Method: OVCAR5 (Monks et al., 1991, J. Natl. Cancer Inst. 83:757-766) and MDA-MB-468 (ATCC HTB-132, ATCC, Manassas, Va.) cells were transduced with lentiviruses encoding either a control or A3B-specific shRNA. Following drug selection (puromycin), cells were fixed in 1% paraformaldehyde and permeabilized in cold methanol. […] After a single PBS wash to remove unbound antibody, cells were analyzed on a flow cytometer.

[2] = biological target: T2, HA-tagged human APOBEC3A (A3A-HA) (human, UniProt P31941 1-199); assay: immunoblot of 293T lysates with A3-HA proteins (FIG. 3), hybridoma supernatant
T2 construct: Expressed by transient transfection in 293T cells; lysate resolved by SDS-PAGE (denatured) for the immunoblot; not shown: HA tag
Excerpt: (§1) Cell lysates from 293T cells transiently transfected with each HA-tagged APOBEC3 protein (A3A-HA, A3B-HA, A3C-HA, A3D-HA, A3F-HA, A3G-HA, A3H-HA) or the expression vector alone were resolved by 12% SDS-PAGE and transferred to PVDF membrane. […] Membranes were further probed with the appropriate secondary antibodies including anti-rabbit IgG IR800CW (Odyssey 926-32211, LI-COR Biosciences, Lincoln, Nebr.) 1/20,000 or anti-mouse IgG IR800CW (Odyssey 827-08364, LI-COR Biosciences, Lincoln, Nebr.) 1/20,000 in 50% Blok (WBAVDP001, Millipore, Darmstadt, Germany) in PBS-T, (PBS, 0.1% Tween-20) and images were generated using LI-COR imaging (LI-COR Biosciences, Lincoln, Nebr.).

[3] = biological target: T3, HA-tagged human APOBEC3B (A3B-HA) (human, UniProt Q9UH17 1-382); assay: as above
T3 construct: Expressed by transient transfection in 293T cells; lysate resolved by SDS-PAGE (denatured) for the immunoblot; not shown: HA tag
Excerpt: as §1

[4] = biological target: T3, HA-tagged human APOBEC3B (A3B-HA); assay: hybridoma screening (ELISA-positive clones, then immunoblot of A3-HA lysates and immunofluorescence)

T2 sequence (P31941 whole entry): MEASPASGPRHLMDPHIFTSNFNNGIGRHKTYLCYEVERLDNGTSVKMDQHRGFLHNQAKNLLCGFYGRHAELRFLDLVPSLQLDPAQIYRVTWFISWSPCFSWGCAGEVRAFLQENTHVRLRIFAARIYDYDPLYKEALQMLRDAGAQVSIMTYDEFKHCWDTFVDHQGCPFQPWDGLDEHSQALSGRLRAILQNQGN
T3 sequence (Q9UH17 whole entry): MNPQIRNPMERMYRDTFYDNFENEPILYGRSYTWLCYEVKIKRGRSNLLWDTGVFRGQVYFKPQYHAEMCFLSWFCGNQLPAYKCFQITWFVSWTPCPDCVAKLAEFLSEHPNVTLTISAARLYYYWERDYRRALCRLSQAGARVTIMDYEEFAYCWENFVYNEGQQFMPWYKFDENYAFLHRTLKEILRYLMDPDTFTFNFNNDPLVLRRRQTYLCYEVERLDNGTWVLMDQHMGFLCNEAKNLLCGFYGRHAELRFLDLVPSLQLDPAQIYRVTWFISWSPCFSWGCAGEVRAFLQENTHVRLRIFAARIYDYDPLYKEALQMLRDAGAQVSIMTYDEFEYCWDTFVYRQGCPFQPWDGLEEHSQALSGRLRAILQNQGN
T1 sequence (Q9UH17 whole entry): as above

| Binder | binding result [1] | binding result [2] | binding result [3] | binding result [4] |
| --- | --- | --- | --- | --- |
| B1 | binds | binds | binds | – |
| B2 | – | binds | – | binds |
